From patent US10793631B2, “Human PAC1 antibodies” (AMGEN INC., priority 2013, dated 2020)

How the values were obtained:
Format in all cases: cell-based
PAC1 = target: T1, PAC1 (Homo sapiens, UniProt P41586); experiment: Activity and selectivity of PAC1 agonists on PAC1
T1 sequence (P41586 21-468): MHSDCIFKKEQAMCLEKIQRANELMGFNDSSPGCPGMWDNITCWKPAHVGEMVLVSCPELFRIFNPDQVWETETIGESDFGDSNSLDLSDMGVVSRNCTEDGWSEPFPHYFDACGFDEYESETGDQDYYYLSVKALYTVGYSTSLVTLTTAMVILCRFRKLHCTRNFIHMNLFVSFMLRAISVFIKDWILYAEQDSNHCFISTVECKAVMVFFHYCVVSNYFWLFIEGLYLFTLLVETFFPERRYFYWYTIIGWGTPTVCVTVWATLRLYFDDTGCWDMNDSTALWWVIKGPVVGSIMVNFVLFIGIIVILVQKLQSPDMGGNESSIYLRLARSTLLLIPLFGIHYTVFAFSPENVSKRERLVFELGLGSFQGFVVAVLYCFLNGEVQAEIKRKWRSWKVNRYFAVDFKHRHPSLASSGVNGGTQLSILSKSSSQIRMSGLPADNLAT

VPAC1 = target: T2, VPAC1 (Homo sapiens, UniProt P32241); experiment: Activity and selectivity of PAC1 agonists on VPAC1; conditions: receptor agonist on VPAC1
T2 sequence (P32241 31-457): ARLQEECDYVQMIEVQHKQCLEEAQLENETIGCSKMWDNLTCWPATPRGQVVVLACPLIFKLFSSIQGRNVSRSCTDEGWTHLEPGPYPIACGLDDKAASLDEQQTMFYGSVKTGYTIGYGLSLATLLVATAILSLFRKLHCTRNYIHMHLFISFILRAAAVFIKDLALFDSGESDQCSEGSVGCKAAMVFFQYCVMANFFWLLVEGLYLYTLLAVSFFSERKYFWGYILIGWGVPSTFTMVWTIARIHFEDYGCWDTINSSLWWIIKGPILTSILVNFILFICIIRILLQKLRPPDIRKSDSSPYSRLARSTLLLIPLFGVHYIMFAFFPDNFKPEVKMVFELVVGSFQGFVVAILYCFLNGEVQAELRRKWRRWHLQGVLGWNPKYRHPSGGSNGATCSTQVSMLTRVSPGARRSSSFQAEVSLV

VPAC2 = target: T3, VPAC2 (Homo sapiens, UniProt P41587); experiment: Activity and selectivity of PAC1 agonists on VPAC2; conditions: receptor agonist on VPAC2
T3 sequence (P41587 24-438): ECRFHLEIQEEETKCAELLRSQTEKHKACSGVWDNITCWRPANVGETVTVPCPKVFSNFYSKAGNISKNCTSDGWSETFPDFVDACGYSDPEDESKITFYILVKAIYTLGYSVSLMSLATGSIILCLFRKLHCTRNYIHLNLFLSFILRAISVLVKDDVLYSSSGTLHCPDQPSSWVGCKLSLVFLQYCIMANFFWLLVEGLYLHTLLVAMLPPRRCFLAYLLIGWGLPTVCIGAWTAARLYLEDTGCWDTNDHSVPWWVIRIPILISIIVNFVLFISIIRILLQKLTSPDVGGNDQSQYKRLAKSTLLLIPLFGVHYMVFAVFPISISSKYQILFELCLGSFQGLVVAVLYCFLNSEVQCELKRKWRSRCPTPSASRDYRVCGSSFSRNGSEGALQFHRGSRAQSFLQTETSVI

## Maxadilan: 65 amino acid peptide originally isolated from the sand-fly; PAC1-selective agonist
PAC1; PAC1 versus VPAC1 and VPAC2
  agonist activity and selectivity: highly-selective for PAC1 versus VPAC1 and VPAC2
PAC1; receptor agonist on PAC1
  EC50: 0.06 nM
VPAC1
  EC50: > 1000 nM
VPAC2
  EC50: > 1000 nM
